Test [1] has as its target Enhygromyxa salina luciferase LuxA (Enhygromyxa salina). The test can be described thus: SAXS.
The target is the same in test [2]. The test can be described thus: SEC-MALS.

Values joined by “and” are separate entries in the source; they are usually repeats but may differ in a detail not shown here. Identical values can stand only once.

“Enhygromyxa salina luciferase LuxA (enzyme)”: in test [1], the percent of the protein as dimers was found to be 82%; the percent of the protein as tetramers turned out to be 18%; the stoichiometry N is 2 and 4. For the same substance, the stoichiometry N in test [2] was 2 and 4.

The values above are taken from paper doi:10.1101/2023.02.27.530324.
